Biological target: T1, HER2-hFc (UniProt P04626 23-652)
T1 construct: Immobilized on a CM5 sensor chip; also called HER2 immobilized on a sensor chip; not shown: hFc part
Experiment: SPR (Biacore T200), HER2-hFc immobilized on CM5 chip, antibody flowed at 1-16 nmol/l
Description: It was examined using a surface plasmon resonance method whether the Herceptin-Okt3 bispecific antibody obtained in Example 1(6) above could maintain a binding to Her2. Specifically: the Herceptin-Okt3 bispecific antibody was allowed to flow over HER2 immobilized on a sensor chip at a predetermined flow rate, and measurement was conducted using an intermolecular interaction analyzer. The Herceptin-Okt3 bispecific antibody purified in Example 1(6) above was diluted with 1×PBS-Tween20 to 1 nmol/l. 2 nmol/l. 4 nmol/l. 8 nmol/l, and 16 nmol/l. After the dilution, a surface plasmon resonance measuring apparatus (Biacore T200, manufactured by Cytiva) was used to measure the binding strength by allowing the diluted solution containing the Herceptin-Okt3 bispecific antibody to flow over HER2-hFc immobilized on a CM5 sensor chip (manufactured by GE Healthcare).
In FIG. 7, the horizontal axis indicates the time (minute), and the vertical axis indicates the response unit (RU).

B1: Herceptin-OKT3 bispecific antibody (bispecific antibody)
heavy 1: not shown
light 1: DIQMTQSPSSLSASVGDRVTITCSASSSVSYMNWYQQTPGKAPKRWIYDTSKLASGVPSRFSGSGSGTDYTFTISSLQPEDIATYYCQQWSSNPFTFGQGTKLQITRTVA
heavy 2: not shown
light 2: not shown
Q: For B1, which Kd is on record?
A: 2.25 nM
